In publication PMC7244511, “Phosphoproteomics identifies dual-site phosphorylation in an extended basophilic motif regulating FILIP1-mediated degradation of filamin-C” (Communications Biology, 2020):

B1: recombinant hFLNc d19–21, wild type (domain or fragment, human, UniProt Q14315 2036-2410, looked up)
chain: SEIGDASKVRVWGKGLSEGHTFQVAEFIVDTRNAGYGGLGLSIEGPSKVDINCEDMEDGTCKVTYCPTEPGTYIINIKFADKHVPGSPFTVKVTGEGRMKESITRRRQAPSIATIGSTCDLNLKIPGNWFQMVSAQERLTRTFTRSSHTYTRTERTEISKTRGGETKREVRVEESTQVGGDPFPAVFGDFLGRERLGSFGSITRQQEGEASSQDMTAQVTSPSGKVEAAEIVEGEDSAYSVRFVPQEMGPHTVAVKYRGQHVPGSPFQFTVGPLGEGGAHKVRAGGTGLERGVAGVPAEFSIWTREAGAGGLSIAVEGPSKAEIAFEDRKDGSCGVSYVVQEPGDYEVSIKFNDEHIPDSPFVVPVASLSDDARR
notes: human filamin-C, Ig-like domains 19–21; also called wildtype hFLNc d19–21; non-phosphorylated hFLNc d19–21

Key:
[1] = biological target: FILIP1 (filamin A-interacting protein 1), carboxy-terminus (CT) carboxy-terminus (CT) (UniProt Q7Z7B0); test: anti-Myc co-immunoprecipitation, quantitative immunoblot; details: reference: wild type; sites S2233,S2236
[2] = biological target: FILIP1 (filamin A-interacting protein 1), carboxy-terminus (CT) carboxy-terminus (CT) (UniProt Q7Z7B0); test: co-immunoprecipitation, quantitative immunoblot; details: reference: wild type; sites S2233,S2236
[3] = biological target: T1, FILIP1 CT-GFP (expressed in HEK293 cells) (UniProt Q7Z7B0-2 776-1177); test: fluorescence correlation spectroscopy (competition); recombinant FLNc d19–21 (44,000 to 21 nM) or its DD mutant (60,000 to 78 nM) titrated to HEK293T lysate with FILIP1 CT-GFP bound to Myc-hFLNc d18–21 DD; PBS pH 7.4, 0.05% Tween-20, 20 °C; details: one partner purified
T1 construct: FILIP1 carboxy-terminus (CT); also called FILIP1-GFP CT; wild-type FILIP1 CT-GFP; source: HEK293 (HEK293T), transfected, in lysate
T1 sequence (looked up): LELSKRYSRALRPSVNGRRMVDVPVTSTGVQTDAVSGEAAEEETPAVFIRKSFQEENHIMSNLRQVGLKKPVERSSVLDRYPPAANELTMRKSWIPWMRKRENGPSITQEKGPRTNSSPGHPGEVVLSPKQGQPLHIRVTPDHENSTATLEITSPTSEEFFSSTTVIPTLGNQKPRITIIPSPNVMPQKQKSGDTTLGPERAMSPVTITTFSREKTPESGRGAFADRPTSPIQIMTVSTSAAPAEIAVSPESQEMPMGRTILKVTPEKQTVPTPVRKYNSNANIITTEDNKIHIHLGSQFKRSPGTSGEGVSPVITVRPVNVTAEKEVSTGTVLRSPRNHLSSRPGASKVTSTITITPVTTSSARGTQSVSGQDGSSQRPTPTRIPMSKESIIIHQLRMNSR

| Molecule | binding against the reference [1] | binding against the reference [2] | Kd [3] [nM] |
| --- | --- | --- | --- |
| human filamin-C (hFLNc) Ig-like domains 18-21 (d18–21) (from UniProt Q14315) AA (S2233A/S2236A) | stronger | stronger | – |
| B1 | – | – | 1170 |
